The target of assay [1] is T1, HLA-E*0103 (extracellular domain with beta-2-microglobulin, recombinant) (human). Briefly: in vitro refold, Superdex 75, SEC-HPLC, 3D12 binding. (Size exclusion chromatography separates by hydrodynamic size, large species first.)
Assay [2] has as its target T1, HLA-E*0103 (extracellular domain with …). Briefly: peptide binding and in vitro refolding.

As to GLADKVYFL [peptide GLADKVYFL (CAD protein)], the binding result in assay [1] is “binds”. For the molecule YLLPAIVHI [peptide YLLPAIVHI (RNA Helicase p68)], the binding result in assay [2] is listed as “binds”.

For the origin of these results see US20200291116A1 (ABEXXA BIOLOGICS, published 2020).
